From article PMC2245940, “Blocking binding of Bacillus thuringiensis Cry1Aa to Bombyx mori cadherin receptor results in only a minor reduction of toxicity” (BMC Biochemistry, 2008) come the findings set out here.

The target of assay [1] is Bombyx mori cadherin-like protein BtR175 (Bombyx mori (endogenous in larval midgut)). In words: SPR; receptors (100-200 ng) amine-coupled to a CM5 chip; toxin 100-1000 nM injected in HBS pH 7.4 (10 mM Hepes, 150 mM NaCl, 3.4 mM EDTA) at 50 ul/min; blank flowcell subtracted; 1:1 Langmuir fit; apparent rate constants. On the technique in general: In SPR one partner is held on a chip, and binding of the other changes the refractive index at the surface.

For assay [2] the target is unchanged.
Assay [3] deals with T1, Bacillus thuringiensis Cry1Aa insecticidal protein, wild type, trypsin-activated toxin (Bacillus thuringiensis, UniProt P0A366 1-1176).
T1 construct: trypsin-resistant 65 kDa toxin cut from the solubilized protoxin; also called Cry1Aa (Wt); Cry1Aa wt; source: E. coli MV1190 containing pBN-1Aa; crystal inclusion bodies solubilized, trypsin-digested, purified (Superdex 200, monomeric fraction)
In words: SPR; receptors (100-200 ng) amine-coupled to a CM5 chip; toxin 100-1000 nM injected in HBS pH 7.4 (10 mM Hepes, 150 mM NaCl, 3.4 mM EDTA) at 50 ul/min; blank flowcell subtracted; 1:1 Langmuir fit; apparent rate constants. The conditions noted are these: both partners purified.

By koff is commonly meant the first-order rate constant of dissociation. A word on the kon: it is a measure of how fast the partners come together.

“Cry1Aa mutant toxin F328A, trypsin-activated (from UniProt P0A366 1-1176) (natural protein)”: in assay [1], the Kd came to 60.7 nM, the koff stood at 9.1e-05 s⁻¹ and the kon amounted to 1500 M⁻¹ s⁻¹. Moreover, the LC50 against B. mori larvae (surface contamination bioassay, mortality after 5 days) in assay [2] turned out to be 41.5 ng/ccm.

On to “Bacillus thuringiensis Cry1Aa insecticidal protein, wild type, trypsin-activated toxin (from UniProt P0A366 1-1176) (natural protein)”, for which, in assay [1], the Kd is 2.6 nM, the koff turned out to be 3.3e-05 s⁻¹ and the kon was found to be 13000 M⁻¹ s⁻¹.

B1: Bombyx mori aminopeptidase N (receptor)
chain: LSPIPVPEDEWVEFARMLRDPAFRLPTTTRPRHYQVTLTPYFDVVPANVNPFTFDGEVTIYTSPTVANVNEVVIHCNDLTIQSLSIGYQSGTNVVDITATGQTFACEMPFSFLRIRTTEALVLNREYIIKSTFRGNLQTNMRGFYRSWYVDSTGRRWMGTTQFQPGHARQAFPCYDEPGFKATFDITMNREESFSPTISNMPIRTTNTLANGRVSETFWTTPVTSTYLLAFIVSHYTVVSTNNNALRPFDIYARNNVGRTGDWSLEIGEKLLEAMEAYTQIPYYTMAENINMKQAAIPDFSAGAMENWGLLTYREALILYDPLNSNHFYKQRVANIVAHEIAHMWFGNLVTCAWWDNLWLNEGFARFYQYYLTASVAPELGYETRFIVEQVQMAMFSDSVDTAHALTDLNVNDPTTVSAHFSTITYARGAAILRMTQHLLGVETFVKGLRNYLRERQFNVAEPHHLFTALDAAAVEDGALNGYGGITIDTYFRTWSEKAGHPLLTVTINQRTGEMIVTQERWERNTGVSQFPSLWHIPITWTRAGAPEFEDLKPSQFISQQVTSINRGTTGLEWVIFNKQEAGFYRVNYDDTNWALLTRALRSSSRTAIHQLNRAQIVDDIFQLARANVMKYNRAFNILSFLQFEDEYAPWLAAISGFNFLIRRLAHDSTNAALLQKLILELSPAVVAKLGYLEPENGSYMTDLQRMYVMEFLCNVGHEECNNFGTQAFRRWSTGTFIPANMRPWVYCAGLRHGTAEDFNFFWNRYLQEDLSSEKVVMLNVAGCTTDQASLNRFLDAIVSGNDDIRPQDYNAALTSAITSNEINTLRAFQWLRNNVDQATRTLGSVSTILNTIIGRLLNEEQINEVSNWLTANQNTLGATYSTALRAIETTRSNLVWSQQRISEFTNYFESGYVEDVIEEITEAPPTAPPTAPPTEAPAVTPAPDSANVAALSFITLIITLAVNLA
On to B1, for which, in assay [3], the Kd was 75 nM, the koff was found to be 0.0015 s⁻¹ and the kon amounted to 21000 M⁻¹ s⁻¹.
